# According to article PMC6051995:
# Target: vinculin (UniProt P18206)
# Assay: FLAG IP, LC-MS/MS spectral counting
# Conditions: reference: FLAG-EZH2 wild type; sites T367
substance,measurement,value
EZH2 (from UniProt Q15910) FLAG-EZH2 T367A,binding against the reference,weaker
